Measurements from patent US20250340631A1 (HARBOUR BIOMED SHANGHAI, published 2025).

What was measured:
[1] = target: T1, human CD3 on Jurkat cells (human, UniProt P07766 23-207); assay: FACS on Jurkat cells
T1 construct: whole, on cells; on cells it stands in the whole CD3/TCR complex; also called CD3-expressing cells

human CLDN18.2 [2] = target: human CLDN18.2 (human); assay: cell-based or functional assay
[3] = target: CLDN18.2 of SNU620 cells (methionine to leucine at amino acid 149) (human, UniProt P56856-2 1-261); assay: cell-based or functional assay
Chain of CLDN18.2 of SNU620 cells (methionine to leucine at amino acid 149) (P56856 other isoform, or with tags, fused parts or gaps limits assumed): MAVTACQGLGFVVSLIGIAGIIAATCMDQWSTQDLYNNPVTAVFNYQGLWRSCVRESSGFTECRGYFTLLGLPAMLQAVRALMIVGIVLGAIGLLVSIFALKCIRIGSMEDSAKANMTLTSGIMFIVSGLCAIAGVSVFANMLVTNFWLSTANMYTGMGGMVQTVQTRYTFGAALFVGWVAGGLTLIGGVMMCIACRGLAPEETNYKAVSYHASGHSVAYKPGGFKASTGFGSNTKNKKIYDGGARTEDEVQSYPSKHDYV

human CLDN18.2 [4] = target: T2, human CLDN18.2 (human); assay: FACS on HEK293/hCLDN18.2 cells
T2 construct: the HEK293 line was made with a GenScript plasmid; also called hCLDN18.2

human CLDN18.2 [5] = target: T2, human CLDN18.2; assay: FACS on NUGC4_D8 cells

T1 sequence (P07766 23-207): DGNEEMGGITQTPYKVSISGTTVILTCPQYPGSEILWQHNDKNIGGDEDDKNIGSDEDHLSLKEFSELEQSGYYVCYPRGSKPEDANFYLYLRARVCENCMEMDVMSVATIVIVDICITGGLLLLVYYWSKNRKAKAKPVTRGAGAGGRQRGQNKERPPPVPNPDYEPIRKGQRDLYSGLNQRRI

B1: PR005399 (bispecific antibody, human IgG1, lambda, L234A L235A)
chain: EVQLVESGGGLVQPGGSLRLSCAASGFTFSSYWMHWVRQVPGKGLVWVSRISSAGSRTIYADSVKGRFTISRDNAKNTLYLQMNSLRAEDTAVYYCARGEDHDILTGYPIRGQGTTVTVSSGGGGSGGGGSGGGGSEVQLVESGGGLVQPGGSLRLSCAASGFTFSSYWMHWVRQVPGKGLVWVSRISSAGSRTIYADSVKGRFTISRDNAKNTLYLQMNSLRAEDTAVYYCARGEDHDILTGYPIRGQGTTVTVSSASEPKSSDKTHTCPPCPAPEAAGGPSVFLFPPKPKDTLMISRTPEVTCVVVDVSHEDPEVKFNWYVDGVEVHNAKTKPREEQYNSTYRVVSVLTVLHQDWLNGKEYKCKVSNKALPAPIEKTISKAKGQPREPQVCTLPPSREEMTKNQVSLSCAVKGFYPSDIAVEWESNGQPENNYKTTPPVLDSDGSFFLVSKLTVDKSRWQQGNVFSCSVMHEALHNHYTQKSLSLSPGK
heavy: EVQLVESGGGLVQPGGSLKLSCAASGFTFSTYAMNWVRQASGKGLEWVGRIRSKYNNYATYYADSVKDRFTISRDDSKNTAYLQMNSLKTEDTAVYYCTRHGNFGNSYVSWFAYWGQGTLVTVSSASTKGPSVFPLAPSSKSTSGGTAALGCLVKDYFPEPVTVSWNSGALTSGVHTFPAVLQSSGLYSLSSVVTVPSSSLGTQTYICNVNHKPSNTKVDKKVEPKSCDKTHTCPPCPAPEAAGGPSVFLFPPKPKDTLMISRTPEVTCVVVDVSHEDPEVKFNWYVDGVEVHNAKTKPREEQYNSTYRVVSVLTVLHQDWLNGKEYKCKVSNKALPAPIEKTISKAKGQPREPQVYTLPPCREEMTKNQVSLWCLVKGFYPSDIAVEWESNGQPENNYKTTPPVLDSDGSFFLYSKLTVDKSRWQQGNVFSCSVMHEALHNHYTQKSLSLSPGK
light: QAVVTQEPSLTVSPGGTVTLTCRSSTGAVTTSNYANWVQQKPGQAPRGLIGGTNKRAPWTPARFSGSLLGDKAALTLLGAQPEDEAEYFCALWYSNLWVFGGGTKLTVLGQPKAAPSVTLFPPSSEELQANKATLVCLISDFYPGAVTVAWKADSSPVKAGVETTTPSKQSNNKYAASSYLSLTPEQWKSHRSYSCQVTHEGSTVEKTVAPTECS
notes: structure 1; CD3 Fab from PR003886, CLDN18.2 VH from PR007243; LALA
EC50 [1]: 81.9 nM
TDCC, Titer EC50 (pM), NUGC4_D8 (human CLDN18.2 [2]): 14.8 pM
TDCC, Titer EC50 (pM), SNU620 [3]: 41.1 pM
EC50 (human CLDN18.2 [4]): 25.3 nM

B2: PR007082 (bispecific antibody, human IgG1, lambda)
chain: EVQLVESGGGLVQPGGSLRLSCAASGFTFSSYWMHWVRQVPGKGLVWVSRINHDSSRTIYADSVKGRFTISRDNAKNTLYLQMNSLRAEDTAVYYCARGEDHDILTGYPIRGQGTTVTVSSGGGGSGGGGSGGGGSEVQLVESGGGLVQPGGSLRLSCAASGFTFSSYWMHWVRQVPGKGLVWVSRINHDSSRTIYADSVKGRFTISRDNAKNTLYLQMNSLRAEDTAVYYCARGEDHDILTGYPIRGQGTTVTVSSASEPKSSDKTHTCPPCPAPEAAGAPSVFLFPPKPKDTLMISRTPEVTCVVVDVSHEDPEVKFNWYVDGVEVHNAKTKPREEQYNSTYRVVSVLTVLHQDWLNGKEYKCKVSNKALPAPIEKTISKAKGQPREPQVCTLPPSREEMTKNQVSLSCAVKGFYPSDIAVEWESNGQPENNYKTTPPVLDSDGSFFLVSKLTVDKSRWQQGNVFSCSVMHEALHNHYTQKSLSLSPGK
heavy: EVQLVESGGGLVQPGGSLKLSCAASGFTFSTYAMNWVRQASGKGLEWVGRIRSKYNNYATYYADSVKDRFTISRDDSKNTAYLQMNSLKTEDTAVYYCTRHGNFGNSYVSWFAYWGQGTLVTVSSASTKGPSVFPLAPSSKSTSGGTAALGCLVKDYFPEPVTVSWNSGALTSGVHTFPAVLQSSGLYSLSSVVTVPSSSLGTQTYICNVNHKPSNTKVDKKVEPKSCDKTHTCPPCPAPEAAGAPSVFLFPPKPKDTLMISRTPEVTCVVVDVSHEDPEVKFNWYVDGVEVHNAKTKPREEQYNSTYRVVSVLTVLHQDWLNGKEYKCKVSNKALPAPIEKTISKAKGQPREPQVYTLPPCREEMTKNQVSLWCLVKGFYPSDIAVEWESNGQPENNYKTTPPVLDSDGSFFLYSKLTVDKSRWQQGNVFSCSVMHEALHNHYTQKSLSLSPGK
light: QAVVTQEPSLTVSPGGTVTLTCRSSTGAVTTSNYANWVQQKPGQAPRGLIGGTNKRAPWTPARFSGSLLGDKAALTLLGAQPEDEAEYFCALWYSNLWVFGGGTKLTVLGQPKAAPSVTLFPPSSEELQANKATLVCLISDFYPGAVTVAWKADSSPVKAGVETTTPSKQSNNKYAASSYLSLTPEQWKSHRSYSCQVTHEGSTVEKTVAPTECS
notes: structure 1; CD3 Fab from PR003886, CLDN18.2 VH from PR007248; AAA
EC50 [1]: 41 nM
EC50 (human CLDN18.2 [5]): 44.2 nM
